B1: 1024-DM1 (antibody, V domains shown)
VH: QVQLQQPGAELVEPGGSVKLSCKASGYTFTSHWMHWVKQRPGQGLEWIGEINPSSGRNNYNEKFKSKATLTVDKSSSTAYMQFSSLTSEDSAVYYCVRYYGYDEAMDYWGQGTSVTVS
VL: DIVMTQAAFSNPVTLGTSASISCRSSKSLLHSNGITYLYWYLQKPGQSPQLLIYQMSNLASGVPDRFSSSGSGTDFTLRISRVEAEDVGVYYCAQNLELPYTFGGGTKLEIKR
modifications: DM1 conjugated through SMCC linker; conjugated residues and chain not stated
B2: 992-DM1 (antibody, V domains shown)
VH: EVQLQQPGSELVRPGASVKLSCKASGYTFTSYWMHWVKQRPGQGLEWIGNIYPGSRSTNYDEKFKSKATLTVDTSSSTAYMQLSSLTSEDSAVYYCTRNGDYYVSSGDAMDYWGQGTSVTVS
VL: DIQMTQTTSSLSASLGDRVTISCRTSQDIGNYLNWYQQKPDGTVKLLIYYTSRLHSGVPSRFSGSGSGTDFSLTINNVEQEDVATYFCQHYNTVPPTFGGGTKLEIKR
modifications: DM1 conjugated through SMCC linker; conjugated residues and chain not stated

Molecular target: human epidermal growth factor receptor (hEGFR) (human, UniProt P00533 25-1210)
Experiment: cell-based or functional assay

Binder	IC50 (nM), cell growth/survival (sulforhodamine B), A549	IC50 (nM), cell growth/survival (sulforhodamine B), NCI-H226	IC50 (nM), cell growth/survival (sulforhodamine B), NCI-H292
B1	24.7 nM	1.89 nM	0.09 nM
B2	2.2 nM	1.07 nM	0.22 nM
